“Also recorded” adds a separate entry of the source.
B1: aNRP2-28v2/4: mouse surrogate VEGF blocking antibody recognizing mouse NRP2, functional surrogate for aNRP2-10v10; CDRs SEQ ID NOs: 63-68 (antibody, V domains shown)
VH: QSVKESEGGLFKPTDTLTLTCTVSGFSLSTYSISWVRQAPGNGLEWIGIIGDAGGIIYATWAKSRSTITRSTALNTVTLKMTGLTAADTATYFCARDGTAFDIWGPGTLVTVSS
VL: AYDMTQTPASVEVVVGGTVTIKCQASQSIYSKLGWYQQKPGQPPKLLIYRASTLASGVSSRFKGSGSGTEYTLTISGVQCDDAATYYCQQDYSYINVDNIFGGGTEVVVK
B2: aNRP2-14v9: humanized, affinity matured anti-NRP2 antibody, target domain a2; VH SEQ ID NO: 53, VL SEQ ID NO: 54 (antibody, V domains shown)
VH: QLQLVESGGGVVQPGRSLRLSCTVSGFSLTSYGVHWVRQAPGKGLEWVGLIWSGGSTDYSPAFISRFTISEDNSKSTVYLQMNSLRAEDTAVYFCARNSYSSGYYAMDYWGQGTTVTVSS
VL: DIQLTQSPSFLSASVGDRVTITCKASQNVGHAVAWYQQKPGKAPKLLIYSASNRYTGVPSRFSGSGSGTEFTLTISSLQPEDFATYYCQQYSRYPPYTFGGGTKVEIK
modifications: Variable heavy chain region; Light chain variable region

Experiments:
MDA-MB-231 cells = details: mouse, in vivo
Protocol: The dosing regimen was initiated when the mean tumor volume of all study animals reached 50-100 mm^3.
Treatment Regimen. Twenty (20) NSG mice (Jackson Laboratory, female, 5-6 wks old) were used in this study. The animals were assigned to two study groups of 10 mice randomly. The MDA-MB-231 cell line was prepared for injection as described in the Materials and Methods.
1.25×10^6 cancer cells in PBS with 20% matrigel were injected orthotopically into the mammary fat pad. The day on which the tumor was implanted is designated as Day 0.

Human NRP2 (aa23-855) = target: T1, Human NRP2 (aa23-855) (Homo sapiens, UniProt O60462); test: SPR binding affinity of anti-NRP2 antibodies to human NRP2 antigen; details: KD = kd/ka, Langmuir (1:1) model
T1 construct: Human NRP2 (aa23-855)
T1 sequence (O60462 23-855 isoform O60462-3): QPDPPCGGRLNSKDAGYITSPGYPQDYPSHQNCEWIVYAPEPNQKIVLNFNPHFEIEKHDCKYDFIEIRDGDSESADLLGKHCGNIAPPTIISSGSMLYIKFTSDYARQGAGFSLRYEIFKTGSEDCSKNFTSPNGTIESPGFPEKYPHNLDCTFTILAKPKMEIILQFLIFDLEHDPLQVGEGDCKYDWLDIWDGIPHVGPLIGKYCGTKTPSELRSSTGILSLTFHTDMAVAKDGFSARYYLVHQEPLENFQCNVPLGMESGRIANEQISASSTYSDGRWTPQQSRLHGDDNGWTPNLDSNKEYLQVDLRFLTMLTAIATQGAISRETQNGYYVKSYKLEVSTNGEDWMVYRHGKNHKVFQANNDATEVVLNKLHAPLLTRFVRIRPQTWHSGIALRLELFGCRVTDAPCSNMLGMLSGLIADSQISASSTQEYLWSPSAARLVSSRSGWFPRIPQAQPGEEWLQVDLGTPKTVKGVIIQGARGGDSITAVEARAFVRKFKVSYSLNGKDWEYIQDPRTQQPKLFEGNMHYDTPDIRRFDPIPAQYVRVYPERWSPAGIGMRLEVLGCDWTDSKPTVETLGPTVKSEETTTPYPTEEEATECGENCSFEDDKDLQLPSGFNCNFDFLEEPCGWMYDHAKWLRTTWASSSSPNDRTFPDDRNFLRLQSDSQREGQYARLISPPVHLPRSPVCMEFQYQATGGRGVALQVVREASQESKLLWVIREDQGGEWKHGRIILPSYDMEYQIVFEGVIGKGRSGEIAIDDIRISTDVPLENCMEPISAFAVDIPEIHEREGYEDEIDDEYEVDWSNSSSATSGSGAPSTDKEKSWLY
Protocol: Anti-NRP2 antibody binding and affinity measurements. […] SPR experiments were conducted on a Bio-Rad ProteOn XPR36 Protein Interaction Array instrument. Biotinylated anti-human antibody (ThermoFisher Cat #7103302100) was immobilized on ProteOn NLC sensor chips. Anti-NRP2 antibodies were subsequently flowed over and captured by the anti-human antibody. Human NRP2 antigen protein was flowed over the captured antibody at varying concentrations (150, 50, 16.67, 5.56, 1.85 nM). The sensor chip surface was regenerated between each analyte run to remove anti-NRP2 antibodies and NRP2 protein. Data was double referenced against a surface with no anti-NRP2 antibody captured (immobilized anti-human antibody only) and a buffer only blank. Affinity constants were derived by globally fitting sensograms to a Langmuir (1:1) interaction model in the ProteOn manager software. For each anti-NRP2 antibody, data from the multiple NRP2 concentrations was fit as a single data set with dissociation rate constant (kd), association rate constant (ka) and Rmax values as global parameters. The reported binding affinity is the equilibrium dissociation constant (KD) calculated from kd/ka. • Running buffer: 50 mM HEPES, 300 mM NaCl, 5 mM CaCl2), 0.005% Tween-20, pH 7.4 • Immobilized antibody: CaptureSelect Human Fab-kappa Kinetics Biotin Conjugate, ThermoFisher Cat #7103302100 • Antigen: Human NRP2 (aa23-855) with C-terminal Avi-, Myc- and His-tags • Regeneration buffer: 10 mM glycine pH 2.0

B16-F10 tumors = test: B16-F10 mouse melanoma in C57BL/6 mice; type: in vivo
Protocol: Animals and Animal husbandry. All mice were ear tagged for identification purpose. Upon arrival, animals were examined to ensure that they were healthy. The animals were housed in autoclaved solid floor polycarbonate cages. Housing and sanitation were performed according to industry standards. All animal handling was performed in a laminar flow hood located in a clean room. In all experiments, euthanasia criteria were set for an upper limit on subcutaneous tumor volume (usually >2,000 mm^3) and body weight loss (usually >20% body weight loss for an individual during the study). Animal work was performed at either Comparative Biosciences, Inc., 786 Lucerne Dr., Sunnyvale, CA 94085 or at aTyr Pharma, 3545 John Hopkins Court, Suite 250, San Diego, CA 92121. The test antibody dosing regimen was initiated once the mean tumor volume reached 50-100 mm^3. Tumor measurements were recorded two times a week until study termination, as described below.
Tumor monitoring. Once palpable, sub-cutaneous tumors were measured three times a week with a digital caliper. Tumor volumes were calculated using formula: Tumor Volume=length×width×width×1/2
Statistical analysis. Data are expressed as mean±SEM o. In experiments in which animals were euthanized due to tumor burden or body weight loss, the terminal tumor volume was carried forward for statistical analysis. […] Significance of difference over time was tested with a 2-way repeated measures ANOVA followed by Dunnett's post-hoc test. Group comparisons were conducted using 1-way ANOVA (parametric or Kruskal Wallis, as noted in the figure legends). A p value <0.05 was considered significant.
Cell culture and implantation. Mouse B16-F10 cell line was purchased from ATCC.
Treatment Regimen. Thirty (30) C57BL/6 mice (Charles River, female, 6-8 wks old) were used in this study. The animals were assigned to 3 study groups of 10 mice randomly, and housed as described in the Materials and Methods. The antibody dosing regimen is shown in Table E4 below; in brief animals received intraperitoneal injections of the control IgG antibody, positive control antibody (Bevacizumab), and anti-NRP2 antibody (as described in the Materials and Methods), administered according to the protocol below (Table E4).

4T1 tumors = test: 4T1 model of spontaneous metastasis in Balb/c mice; type: in vivo
Protocol: The test antibody dosing regimen was initiated one day before cell injection and animal weights and tumor measurements were recorded three times a week until study termination.
Mouse 4T1 cell line was purchased from ATCC. […] 50,000 cancer cells in PBS were implanted subcutaneously into the right flank of each mouse.
Treatment Regimen. […] The animals were assigned to 3 study groups of 10 mice randomly, and housed as described in the Materials and Methods. The antibody dosing regimen is shown in Table E5 below; in brief animals received intraperitoneal injections of 10 mg/kg of the control IgG antibody, and aNRP2-28 (as described in the Materials and Methods), administered according to the protocol below (Table E5); starting one day before cancer cell implantation until termination on day 23).

[1] = test system: neo-lymphangiogenesis of the cornea; test: Corneal alkali-burn injury model of neovascularization (LYVE-1 staining); type: in vivo, mouse; details: IP on Day 0, 3, 7 and 10; Day 14; compared to IgG control; p=0.07
Protocol: Study Design & Treatment Regimen. The study consisted of 40 female C57BL/6 mice separated into four groups. Prior to study, animals were randomized into four groups, 10 mice per group. On Day 0, neovascularization (NV) of the cornea was induced from alkali-burn injury in the eyes of animals under anesthesia. Animals were treated intraperitoneally with control IgG (Group 1), aNRP2-28 (Group 2) and Bevacizumab (Group 3) on post-injury Day 0, 3, 7 and 10. During the in-life phase, animals were monitored with daily clinical observations and weekly body weights. Additionally, ocular assessments of injured eyes were scored and photos taken on post-injury Day 7 and Day 14. All animals were euthanized on Day 14. Injured eyes from all animals were removed and dissected. Whole-mounted corneas were fixed, stained with LYVE-1, and analyzed immunohistochemically to examine the efficacy of Test Articles.

NRP2/PLXNA1 = test: Split-luciferase receptor dimerization assay, NRP2/PLXNA1 with SEMA3F; type: cell-based, human; details: antibody 100 nM; ligand induced dimerization
Protocol: (§1) To further extend the assessment of the biological activity of the anti-NRP2 antibodies, their activity was assessed in a receptor dimerization assay. In brief, vectors encoding a split luciferase pBiT1.1 and pBiT2.1 were obtained from Promega corporation (Madison, Wisconsin). The complete extracellular domain and transmembrane helices of NRP2a (version 2), NRP2b (version 5) (See table N1), FLT4 (VEGFR3), KDR (VEGFR2), and plexin A1 (PLXNA1) were cloned into the vectors and screened for optimal orientation, receptor density, and ligand induced dimerization, following established methods. Expi293 cells (Fisher) were transfected at 1 million cells/mL ˜20 hours prior to the assay with NRP2 and a co-receptor at equal mass amounts. Cells were counted, and 100,000 live cells were plated in a well of a white luminometer plate in Live Cell Imaging Solution (Fisher). Nano-Glo assay substrate (Promega) was added, and the plate was read on a Glomax 96 luminometer at room temperature to establish baseline luminescence. Antibodies were added to the well at 100 nM and the plate was again read to establish a new baseline and monitor the effects of the antibodies on spontaneous receptor dimerization. Depending on the receptor pair, typically 200 nM SEMA3F-p95 (aTyr Pharma), 2 nM VEGF-C(R&D Systems, Minnesota), or 2 nM VEGF165 (R&D Systems, Minnesota) were then added and the plate was again read to measure dimerization of receptors. Normalized responses for each individual well were calculated to the time point prior to addition of ligand, then normalized to no-antibody/no-ligand (baseline signal). Replicates were then processed to give average response and standard deviation. Results are summarized in Table E3 below, and shown graphically in FIGS. 3-10.

NRP2/FLT4(VEGFR3) = target: T2, NRP2/FLT4(VEGFR3) (Homo sapiens, UniProt O60462); test: Split-luciferase receptor dimerization assay, NRP2/FLT4 with VEGF-C; type: cell-based; details: antibody 100 nM; ligand induced dimerization
T2 construct: The complete extracellular domain and transmembrane helices of NRP2a (version 2), NRP2b (version 5); expressed in transfected cells; host or cells: Expi293, transient co-transfection
T2 sequence (O60462 23-859 isoform O60462-3 limits assumed): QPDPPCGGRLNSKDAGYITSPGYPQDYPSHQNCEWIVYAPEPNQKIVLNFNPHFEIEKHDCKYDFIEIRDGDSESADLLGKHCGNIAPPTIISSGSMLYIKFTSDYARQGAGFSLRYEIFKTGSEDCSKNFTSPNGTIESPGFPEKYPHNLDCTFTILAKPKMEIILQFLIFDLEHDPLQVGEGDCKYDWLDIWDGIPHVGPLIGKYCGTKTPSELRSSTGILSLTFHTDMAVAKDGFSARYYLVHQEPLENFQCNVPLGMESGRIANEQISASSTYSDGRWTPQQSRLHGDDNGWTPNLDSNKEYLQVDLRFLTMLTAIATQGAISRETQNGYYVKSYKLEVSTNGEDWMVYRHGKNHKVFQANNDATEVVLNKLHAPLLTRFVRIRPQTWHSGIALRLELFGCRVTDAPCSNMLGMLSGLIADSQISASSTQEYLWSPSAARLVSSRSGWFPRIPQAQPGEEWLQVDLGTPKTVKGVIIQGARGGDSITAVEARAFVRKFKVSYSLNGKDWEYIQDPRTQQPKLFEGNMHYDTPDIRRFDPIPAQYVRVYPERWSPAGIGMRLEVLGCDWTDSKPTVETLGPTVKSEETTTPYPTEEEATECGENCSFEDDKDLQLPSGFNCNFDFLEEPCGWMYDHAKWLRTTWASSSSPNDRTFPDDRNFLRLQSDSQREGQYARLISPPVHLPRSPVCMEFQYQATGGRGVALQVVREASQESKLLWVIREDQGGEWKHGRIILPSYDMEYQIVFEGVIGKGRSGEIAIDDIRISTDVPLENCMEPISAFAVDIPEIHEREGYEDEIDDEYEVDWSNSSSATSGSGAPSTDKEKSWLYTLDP
Protocol: as §1

Molecule	body weight (MDA-MB-231 cells)	Kd (Human NRP2 (aa23-855))	terminal tumor weights (B16-F10 tumors; 25 mg/kg IP BIW)	toxicity from animal body weight measurements and observations (B16-F10 tumors; 25 mg/kg IP BIW)	tumor growth (tumor volume) (B16-F10 tumors; 25 mg/kg IP BIW, compared to IgG control group, p<0.05 on Day 14, 16 and 19)	anti-tumor activity relative to Bevacizumab (positive control) (B16-F10 tumors; aNRP2-28 25 mg/kg vs Bevacizumab 5 mg/kg, IP BIW)	toxicity from animal body weight measurements and observations (4T1 tumors; 10 mg/kg IP)	metastatic nodules in the lung at termination (4T1 tumors; 10 mg/kg IP days -1 to 23, compared to IgG control, p≤0.05)	neo-lymphangiogenesis, % Lyve-1+ area of cornea [1]	effect on NRP2-plexin heterodimerization (in words) (NRP2/PLXNA1)	effect on NRP2-VEGFR3 (FLT4) heterodimerization (in words) (NRP2/FLT4(VEGFR3))
N.N.[Cl][Pt][Cl] [cisplatin, Cisplatin]	significant loss in body weight	–	–	–	–	–	–	–	–	–	–
B1	–	59.9 pM	lowest terminal tumor weights	no evidence of toxicity	tumor growth inhibition	more potent anti-tumor activity	no evidence of toxicity	reduction in metastatic nodules in the lung	inhibits neo-lymphangiogenesis; also recorded: can inhibit neolymphangiogenesis	–	–
B2	–	150 pM	–	–	–	–	–	–	–	extremely potent inhibition	no significant impact

Reference: US12410253B2, “Compositions comprising anti-NRP2 antibodies” (aTyr Pharma, Inc., priority 2019, dated 2025)
